Measurements as given in patent US20240150451A1 (Janssen / Centocor, published 2024).

T1: Tau peptide Start 415 Stop 434
T1 peptide: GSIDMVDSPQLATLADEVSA

T2: Tau peptide Start 417 Stop 436
T2 peptide: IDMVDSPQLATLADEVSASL

T3: Tau peptide Start 419 Stop 438
T3 peptide: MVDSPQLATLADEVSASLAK

T4: Tau peptide Start 421 Stop 440
T4 peptide: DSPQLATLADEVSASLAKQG

T5: Tau peptide Start 422 Stop 441
T5 peptide: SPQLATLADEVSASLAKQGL

T6: Tau peptide Start 3 Stop 22 (Synthetic linear peptide immobilised on a Pepscan array; the attachment to the array cannot be carried by the letters.)
T6 peptide: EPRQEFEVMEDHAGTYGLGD

T7: Tau peptide Start 411 Stop 430
T7 peptide: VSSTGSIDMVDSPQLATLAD

T8: Tau peptide Start 413 Stop 432
T8 peptide: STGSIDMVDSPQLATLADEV


Experiments:
[1] = biological target: T9, recombinant full-length tau 2N4R (control tau) (human, UniProt P10636 2-758); assay: direct ELISA on full-length 2N4R Tau coated at 1 ng/mL
T9 construct: also called recombinant WT (2N4R) tau; Rec; Tau
Experimental: (§1) Binding to recombinant WT (2N4R) tau was analyzed by ELISA. Full-length Tau protein (1 ng/mL or 10 ng/mL) was directly coated to the plate and incubated with different concentrations of either recombinantly- or hybridoma-produced PT/66, PT/69 or hTau/60 antibodies (FIG. 1). […] No substantial difference was observed between binding profiles of recombinant and hybridoma produced antibodies.

[2] = biological target: T9, recombinant full-length tau 2N4R …; assay: direct ELISA on full-length 2N4R Tau coated at 10 ng/mL
Experimental: as §1

[3] = biological target: T1, Tau peptide Start 415 Stop 434; assay: Pepscan ELISA on an array of linear 20-mer Tau 441 peptides; parameters: peptide ELISA signal (no name or unit printed): unit not given here
Source text: (§2) An amino functionalized polypropylene support was obtained by grafting with a proprietary hydrophilic polymer formulation, followed by reaction with t-butyloxycarbonyl-hexamethylenediamine (BocHMDA) using dicyclohexylcarbodiimide (DCC) with N-hydroxybenzotriazole (HOBt), and subsequent cleavage of the Boc-groups using trifluoroacetic acid (TFA). Standard Fmoc-peptide synthesis was used to synthesize peptides on the amino-functionalized solid support by custom modified JANUS liquid handling stations (Perkin Elmer). Synthesis of structural mimics was done using Pepscan's proprietary Chemically Linked Peptides on Scaffolds (CLIPS) technology. CLIPS technology allows to structure peptides into single loops, double loops, triple loops, sheet-like folds, helix-like folds, and combinations thereof. CLIPS templates are coupled to cysteine residues. The side-chains of multiple cysteines in the peptides are coupled to one or two CLIPS templates. For example, a 0.5 mM solution of the P2 CLIPS (2,6-bis(bromomethyl)pyridine) is dissolved in ammonium bicarbonate (20 mM, pH 7.8)/acetonitrile (1:3 (v/v)). This solution is added onto the peptide arrays. The CLIPS template will bind to side-chains of two cysteines as present in the solid-phase bound peptides of the peptide-arrays (455 wells plate with 3 μl wells). The peptide arrays are gently shaken in the solution for 30 to 60 minutes while completely covered in solution. Finally, the peptide arrays are washed extensively with excess of H₂O and sonicated in disrupt-buffer containing 1% SDS/0.1% beta-mercaptoethanol in PBS (pH 7.2) at 70° C. for 30 minutes, followed by sonication in H₂O for another 45 minutes. The T3 CLIPS carrying peptides were made in a similar way but now with three cysteines.
(§3) The binding of antibodies (recombinantly expressed as IgG2a) to each of the synthesized peptides was tested in a pepscan-based ELISA. The peptide arrays were incubated with primary antibody solution (overnight at 4° C.). After washing, the peptide arrays were incubated with a 1/1000 dilution of an appropriate antibody peroxidase conjugate (SBA; Table 4) for one hour at 25° C. After washing, the peroxidase substrate 2,2′-azino-di-3-ethylbenzthiazoline sulfonate (ABTS) and 20 μl/ml of 3 percent H₂O₂ were added. After one hour, the color development was measured.

[4] = biological target: T2, Tau peptide Start 417 Stop 436; assay: as above; parameters: peptide ELISA signal (no name or unit printed): unit not given here
Source text: as §2, §3

[5] = biological target: T3, Tau peptide Start 419 Stop 438; assay: as above; parameters: peptide ELISA signal (no name or unit printed): unit not given here
Source text: as §2, §3

[6] = biological target: T4, Tau peptide Start 421 Stop 440; assay: as above; parameters: peptide ELISA signal (no name or unit printed): unit not given here
Source text: as §2, §3

[7] = biological target: T5, Tau peptide Start 422 Stop 441; assay: as above; parameters: peptide ELISA signal (no name or unit printed): unit not given here
Source text: as §2, §3

[8] = biological target: Tau peptide Start 1 Stop 20 (Synthetic linear peptide immobilised on a Pepscan array; the attachment to the array cannot be carried by the letters.); assay: as above; parameters: peptide ELISA signal (no name or unit printed): unit not given here
Source text: as §2, §3

[9] = biological target: T6, Tau peptide Start 3 Stop 22; assay: as above; parameters: peptide ELISA signal (no name or unit printed): unit not given here
Source text: as §2, §3

[10] = biological target: T7, Tau peptide Start 411 Stop 430; assay: as above; parameters: peptide ELISA signal (no name or unit printed): unit not given here
Source text: as §2, §3

[11] = biological target: T8, Tau peptide Start 413 Stop 432; assay: as above; parameters: peptide ELISA signal (no name or unit printed): unit not given here
Source text: as §2, §3

[12] = biological target: T10, PHF-tau (paired helical filament tau; sarcosyl insoluble prep from human AD brain) (human, UniProt P10636-8 2-441, limits assumed, hyper-phosphorylated (sites not specified)); assay: SPR (ProteOn), mAb on PHF-tau, bivalent analyte fit; apparent affinity (avidity)
T10 construct: also called aggregated PHF Tau; aggregated tau (AD brain)
Experimental: (§4) The interactions with PHF-tau and recombinant tau were assessed by SPR on ProteOn (Bio-Rad, Hercules, CA) instrument for PT66, PT69, hTau60 anti-tau antibodies and their corresponding Fab fragments. Because of the multimeric/aggregated nature of PHF-tau with multiple copies of the epitope, and the bivalent nature of IgGs, mAb affinity was influenced by avidity in this study format. Fab affinity provides information on the intrinsic affinity of the antibody. Representative sensorgrams of mAbs and their Fab fragments binding to PHF Tau are shown in FIG. 3 and a summary is represented in Table 1 below. HT7 was used as a reference.

[13] = biological target: T10, PHF-tau (paired helical filament tau; …); assay: SPR (ProteOn), Fab on PHF-tau, 1:1 Langmuir fit
Experimental: as §4

[14] = biological target: T9, recombinant full-length tau 2N4R …; assay: SPR (ProteOn), Fab on recombinant full-length tau, 1:1 Langmuir fit
Experimental: as §4

Sequence of Tau peptide Start 1 Stop 20 (Synthetic linear peptide immobilised on a Pepscan array; the attachment to the array cannot be carried by the letters.) (peptide, as listed by the source limits assumed): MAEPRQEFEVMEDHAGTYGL

Binder | EC50 (read off the curve) [1] [µg/mL] | EC50 (read off the curve) [2] [µg/mL] | binding result [3] | peptide ELISA signal (no name or unit printed) [3] | binding result [4] | peptide ELISA signal (no name or unit printed) [4] | binding result [5] | peptide ELISA signal (no name or unit printed) [5] | peptide ELISA signal (no name or unit printed) [6] | peptide ELISA signal (no name or unit printed) [7] | peptide ELISA signal (no name or unit printed) [8] | peptide ELISA signal (no name or unit printed) [9] | peptide ELISA signal (no name or unit printed) [10] | binding result [11] | peptide ELISA signal (no name or unit printed) [11] | Kd [12] [nM] | Kd [13] [nM] | Kd [14] [nM]
hTau60 monoclonal antibody (recombinant, mouse IgG2a/kappa) (antibody, V domains shown, also called hTau60 (PT1B469)) VH: EVQLQQSGPELVKPGTSVKISCKVFGYTFTDYYMNWVKQSHGKSLEWIGDINPDNGETTYNQKFKGKATLTVDKSSSTAYMELRSLTSEDSAVYYCAKGATFVYWGQGTLVTVSA VL: DVVMTQTPLSLPVSLGDQASISCISSQSLVHSTGTTFLHWFLQKPGQSPKLLIYKVSNRFSGVPDRFSGSGSGTDFTLKISRVEAEDLGFYFCSQSTYFPLTFGSGTKLEIKR | ~0.01 | ~0.01 | no binding | 24 | no binding | 48 | no binding | 45 | 2910 | 2920 | 48 | 44 | 36 | no binding | 46 | 0.069 | – | –
hTau/60 hybridoma (antibody, V domains shown, parent of m1; also called hybridoma-produced hTau/60) VH: EVQLQQSGPELVKPGTSVKISCKVFGYTFTDYYMNWVKQSHGKSLEWIGDINPDNGETTYNQKFKGKATLTVDKSSSTAYMELRSLTSEDSAVYYCAKGATFVYWGQGTLVTVSA VL: DVVMTQTPLSLPVSLGDQASISCISSQSLVHSTGTTFLHWFLQKPGQSPKLLIYKVSNRFSGVPDRFSGSGSGTDFTLKISRVEAEDLGFYFCSQSTYFPLTFGSGTKLEIK | ~0.005 | ~0.005 | – | – | – | – | – | – | – | – | – | – | – | – | – | – | – | –
hTau60 Fab (chimeric: mouse variable domains, human IgG1/kappa constant domains, His tag) (Fab, V domains shown, Fab expressed in HEK293F cells; also called hTau60 Fab fragment; not shown: His tag at the C-terminus of the heavy chain; human kappa light chain constant domain) VH: EVQLQQSGPELVKPGTSVKISCKVFGYTFTDYYMNWVKQSHGKSLEWIGDINPDNGETTYNQKFKGKATLTVDKSSSTAYMELRSLTSEDSAVYYCAKGATFVYWGQGTLVTVSA VL: DVVMTQTPLSLPVSLGDQASISCISSQSLVHSTGTTFLHWFLQKPGQSPKLLIYKVSNRFSGVPDRFSGSGSGTDFTLKISRVEAEDLGFYFCSQSTYFPLTFGSGTKLEIK | – | – | – | – | – | – | – | – | – | – | – | – | – | – | – | – | 0.427 | 0.026
PT/66 hybridoma (antibody, V domains shown, parent of m2; also called hybridoma-produced PT/66) VH: QVQLQQPGAELVKPGASVKMSCKASGYTFTSYWITWVKQRPGQGLEWIGDIHPGRGSTKSNEKFKSKATLTVDTSSSTAYMQFSSLTSEDSAVYYCARRWGFDYWGQGTTLTVSS VL: DIVITQDELSNPVTSGESVSISCRSSKSLLYKDGKTYLNWFLQRPGQSPQLLIYLMSTRASGVSDRFSGSGSGTDFTLEISRVKAEDVGVYYCQQLVDYPLTFGAGTKLELK | ~0.01 | ~0.005 | – | – | – | – | – | – | – | – | – | – | – | – | – | – | – | –
PT66 monoclonal antibody (recombinant, mouse IgG2a/kappa) (antibody, V domains shown, also called PT66 (PT1B545)) VH: QVQLQQPGAELVKPGASVKMSCKASGYTFTSYWITWVKQRPGQGLEWIGDIHPGRGSTKSNEKFKSKATLTVDTSSSTAYMQFSSLTSEDSAVYYCARRWGFDYWGQGTTLTVSS VL: DIVITQDELSNPVTSGESVSISCRSSKSLLYKDGKTYLNWFLQRPGQSPQLLIYLMSTRASGVSDRFSGSGSGTDFTLEISRVKAEDVGVYYCQQLVDYPLTFGAGTKLELKR | ~0.04 | ~0.01 | – | 2930 | – | 2940 | – | 2930 | 2930 | 2950 | 40 | 45 | 50 | – | 2520 | 0.056 | – | –
PT66 Fab (chimeric: mouse variable domains, human IgG1/kappa constant domains, His tag) (Fab, V domains shown, Fab expressed in HEK293F cells; also called PT66 Fab fragment; not shown: His tag at the C-terminus of the heavy chain; human kappa light chain constant domain) VH: QVQLQQPGAELVKPGASVKMSCKASGYTFTSYWITWVKQRPGQGLEWIGDIHPGRGSTKSNEKFKSKATLTVDTSSSTAYMQFSSLTSEDSAVYYCARRWGFDYWGQGTTLTVSS VL: DIVITQDELSNPVTSGESVSISCRSSKSLLYKDGKTYLNWFLQRPGQSPQLLIYLMSTRASGVSDRFSGSGSGTDFTLEISRVKAEDVGVYYCQQLVDYPLTFGAGTKLELK | – | – | – | – | – | – | – | – | – | – | – | – | – | – | – | – | 0.514 | 0.04
PT69 monoclonal antibody (recombinant, mouse IgG2a/kappa) (antibody, V domains shown, also called PT69/PT87; PT69 (PT1B548)) VH: QVQLQQPGAELVKPGASVKMSCKASGYTFTNYWITWVKQRPGQGLEWIGDIYPGSGRTKSNEKFKNKATLTADTSSSTAYMQLSSLTSEDSAVYYCTRRWGLDYWGQGTTLTVSS VL: DIVITQDELSNPVTSGESVSISCRSNKSLLYKDGKTYLNWFLQRPGQSPQLLIYLMSTRASGVSDRFSGSGSGTDFTLEISRVKAEDVGVYYCQQLVDYPLTFGAGTKLELKR | – | – | – | 2830 | – | 2920 | – | 2920 | 2930 | 2930 | 30 | 38 | 43 | – | 1380 | – | – | –
